In the supplement of paper PMC10126150:
± gives the standard deviation of the averaged measurements.

Tested on: ATP
Assay: switch fluorescence ratio, 500 uM ATP over buffer (Cy3 cluster intensity, sum of 5 cycles each) (fold (ratio)); higher = stronger signal-on switching upon ATP binding; sequences stand for … in TCGTCGGCAGCGTCAGATGTGTATAAGAGACAGTTTTTTTTTTTTTTTTTTTTTTTTT…TC
Details: aptamer strand: ATP DNA aptamer (quencher-CACCTGGGGGAGTATTGCGGAGGAAGG + anchor), 100 nM annealed; ATP concentration: 500 uM
Outline: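 Clusters carrying Cy3-labelled switching strands on a modified Illumina MiSeq flow-cell were annealed to 100 nM quencher-labelled ATP aptamer and imaged in selection buffer. They were imaged again after 15 min with 500 uM ATP at 22 °C, over five buffer/ATP cycles with NaOH stripping and re-annealing in between. For each cluster, the fluorescence ratio is the summed Cy3 intensity of the target cycles divided by that of the buffer cycles, averaged per switch-domain sequence. Clusters outside 100-1000 RFU were left out.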
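Further: ATP exposure 15 min at 22 °C before imaging.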

| Sequence | switch fluorescence ratio |
| --- | --- |
| TTACACACAC | 1.53 ± 0.073 |
| TTACAGTGGA | 1.01 ± 0.0018 |
| TTACAGTTGT | 1.01 ± 0.038 |
| TTACATATAG | 1.04 ± 0.015 |
| TTACATATCT | 1.03 ± 0.0043 |
| TTACATGTTC | 0.996 ± 0.025 |
| TTACATTGAG | 0.976 ± 0.015 |
| TTACCCATTT | 1.1 ± 0.085 |
| TTACCCTTAG | 1.06 ± 0.028 |
| TTACCTAGAG | 1.04 ± 0.038 |
| TTACCTCTGC | 1.39 ± 0.067 |
| TTACGAGGGG | 0.994 ± 0.024 |
| TTACGCAAGT | 1.27 ± 0.17 |
| TTACGCAATT | 4.42 ± 0.59 |
| TTACGCTACT | 1.802 ± 0.0047 |
| TTACGGCATG | 1.03 ± 0.014 |
| TTACGGCCTT | 1.06 ± 0.012 |
| TTACGGGCGA | 0.998 ± 0.029 |
| TTACGGGCGT | 0.99 ± 0.013 |
| TTACGGGCTA | 0.9975 ± 0.0081 |
| TTACGGGGTA | 1 ± 0.011 |
| TTACGGGGTC | 1.07 ± 0.12 |
| TTACGGTAAT | 1.143 ± 0.0043 |

| Sequence | switch fluorescence ratio |
| --- | --- |
| TTACGTAGGC | 1.09 ± 0.012 |
| TTACGTTTGG | 1.02 ± 0.025 |
| TTACTAATTT | 1.05 ± 0.036 |
| TTACTACTTT | 1.04 ± 0.0099 |
| TTACTAGGCA | 1.01 ± 0.012 |
| TTACTCCGGG | 1.3 ± 0.23 |
| TTACTCTCTG | 1.03 ± 0.025 |
| TTACTGGGGG | 0.999 ± 0.027 |
| TTACTGTTG | 1.05 ± 0.1 |
| TTACTTCTCA | 1 ± 0.011 |
| TTACTTGGCT | 1.01 ± 0.032 |
| TTACTTTTTC | 1.01 ± 0.011 |
| TTAGAAAGAA | 0.976 ± 0.013 |
| TTAGAAGTTT | 1.01 ± 0.015 |
| TTAGAATTCC | 1.1 ± 0.091 |
| TTAGACCGGA | 1.02 ± 0.056 |
| TTAGACCGTG | 0.956 ± 0.079 |
| TTAGACGGGT | 0.982 ± 0.0043 |
| TTAGACGGTT | 1 ± 0.017 |
| TTAGAGAAGT | 0.987 ± 0.019 |
| TTAGAGACGC | 1.06 ± 0.021 |
| TTAGAGCTAG | 1.07 ± 0.09 |
| TTAGAGGACT | 1.01 ± 0.025 |

| Sequence | switch fluorescence ratio |
| --- | --- |
| TTAGAGGGGG | 1.01 ± 0.032 |
| TTAGAGGTTG | 1.13 ± 0.21 |
| TTAGATGGAG | 0.984 ± 0.024 |
| TTAGATGGTT | 0.984 ± 0.021 |
| TTAGATGTCC | 0.9822 ± 0.0075 |
| TTAGCAGCGT | 1 ± 0.019 |
| TTAGCAGCTG | 1 ± 0.04 |
| TTAGCAGGGA | 1 ± 0.019 |
| TTAGCATGGG | 1.04 ± 0.037 |
| TTAGCCTAGT | 0.965 ± 0.037 |
| TTAGCGAGGA | 1.03 ± 0.046 |
| TTAGCGGTGG | 0.926 ± 0.057 |
| TTAGCGTGCT | 0.994 ± 0.0073 |
| TTAGCTAAAA | 1.009 ± 0.01 |
| TTAGCTAGTT | 0.987 ± 0.042 |
| TTAGCTGTAG | 1.09 ± 0.11 |
| TTAGGAACTC | 0.982 ± 0.014 |
| TTAGGAAGGG | 0.956 ± 0.035 |
| TTAGGACCCT | 1.01 ± 0.041 |
| TTAGGACTGG | 0.992 ± 0.0054 |
| TTAGGAGGTT | 0.965 ± 0.028 |
| TTAGGATTAA | 1.02 ± 0.063 |
| TTAGGATTGG | 0.986 ± 0.025 |

| Sequence | switch fluorescence ratio |
| --- | --- |
| TTAGGCACAA | 1.03 ± 0.038 |
| TTAGGCAGAT | 1.24 ± 0.36 |
| TTAGGCCCCG | 1.01 ± 0.04 |
| TTAGGCCGGA | 1.04 ± 0.075 |
| TTAGGCTGAT | 0.981 ± 0.02 |
| TTAGGGAGTG | 1 ± 0.027 |
| TTAGGGCTTT | 1.01 ± 0.035 |
| TTAGGGGATC | 1 ± 0.025 |
| TTAGGGGCGT | 0.989 ± 0.013 |
| TTAGGGGGTG | 1.01 ± 0.025 |
| TTAGGGGTCG | 1 ± 0.041 |
| TTAGGGTCAT | 0.979 ± 0.012 |
| TTAGGGTCGT | 1.01 ± 0.018 |
| TTAGGGTTTT | 1.04 ± 0.067 |
| TTAGGTAATA | 1 ± 0.022 |
| TTAGGTACGA | 1.05 ± 0.011 |
| TTAGGTAGTT | 0.971 ± 0.051 |
| TTAGGTATTA | 0.9912 ± 0.0036 |
| TTAGGTGGCG | 1.04 ± 0.018 |
| TTAGGTGGG | 0.989 ± 0.024 |
| TTAGGTTAAA | 1.06 ± 0.12 |
| TTAGGTTAGG | 0.9765 ± 0.0064 |
| TTAGGTTGGT | 1 ± 0.065 |

| Sequence | switch fluorescence ratio |
| --- | --- |
| TTAGTAAAGG | 1.01 ± 0.041 |
| TTAGTAGTTT | 0.976 ± 0.015 |
| TTAGTATCGG | 0.999 ± 0.052 |
| TTAGTATCTC | 1.03 ± 0.047 |
| TTAGTATTCT | 0.992 ± 0.031 |
| TTAGTCATGC | 1.09 ± 0.12 |
| TTAGTCCTTT | 1.03 ± 0.058 |
| TTAGTCGTCG | 1 ± 0.06 |
| TTAGTCTGGG | 1 ± 0.039 |
| TTAGTGAGCG | 1.03 ± 0.012 |
| TTAGTGCCGG | 0.994 ± 0.016 |
| TTAGTGGCTA | 1.019 ± 0.0087 |
| TTAGTGGGGT | 1.01 ± 0.028 |
| TTAGTTACGA | 1.04 ± 0.014 |
| TTAGTTTCTA | 0.99394 ± 0.00081 |
| TTAGTTTGAA | 0.968 ± 0.012 |
| TTATAAAGAT | 0.992 ± 0.035 |
| TTATAAATTT | 1.29 ± 0.45 |
| TTATAAGTGT | 0.963 ± 0.035 |
| TTATAATACT | 1.04 ± 0.019 |
| TTATAATATT | 1.03 ± 0.025 |
| TTATAATTTG | 1.02 ± 0.032 |
| TTATACATT | 1.02 ± 0.075 |

| Sequence | switch fluorescence ratio |
| --- | --- |
| TTATAGATAG | 0.999 ± 0.018 |
| TTATAGATTG | 1 ± 0.019 |
| TTATAGGCGG | 0.981 ± 0.016 |
| TTATAGGGTT | 0.991 ± 0.041 |
| TTATAGTTGG | 0.98 ± 0.023 |
| TTATATAGGT | 0.9738 ± 0.0054 |
| TTATATATTG | 0.969 ± 0.029 |
| TTATCAAAGC | 0.992 ± 0.033 |
| TTATCAAAGG | 0.986 ± 0.014 |
| TTATCAACAC | 1.09 ± 0.13 |
| TTATCAGCAC | 1.136 ± 0.0044 |
| TTATCATATA | 1.06 ± 0.057 |
| TTATCCAAAG | 0.966 ± 0.016 |
| TTATCCGGAT | 0.933 ± 0.11 |
| TTATCCTTTA | 1.02 ± 0.012 |
| TTATCGAATT | 1 ± 0.025 |
| TTATCGTCGG | 0.978 ± 0.04 |
| TTATCTCACT | 1.06 ± 0.014 |
| TTATCTGGGC | 0.9757 ± 0.0037 |
| TTATCTGTAA | 1.01 ± 0.051 |
| TTATCTTGGT | 1 ± 0.015 |
| TTATCTTGTT | 0.988 ± 0.03 |
| TTATGAAATT | 1.01 ± 0.04 |

| Sequence | switch fluorescence ratio |
| --- | --- |
| TTATGAGCGT | 1 ± 0.014 |
| TTATGAGTCG | 0.979 ± 0.032 |
| TTATGATAGC | 0.965 ± 0.044 |
| TTATGCTTCT | 1.01 ± 0.053 |
| TTATGGACGT | 1.01 ± 0.02 |
| TTATGGCCTA | 1.01 ± 0.017 |
| TTATGGCTAT | 0.991 ± 0.031 |
| TTATGGGTCT | 1 ± 0.036 |
| TTATGGGTTT | 1 ± 0.036 |
| TTATGGTAGC | 0.995 ± 0.015 |
| TTATGGTTAG | 1.008 ± 0.0092 |
| TTATGGTTAT | 1.03 ± 0.015 |
| TTATGGTTCG | 0.954 ± 0.013 |
| TTATGTAGTA | 1 ± 0.019 |
| TTATGTTTAG | 0.976 ± 0.045 |
| TTATTAAATA | 0.98 ± 0.016 |
| TTATTAAGTT | 1.01 ± 0.027 |
| TTATTAATTT | 1 ± 0.03 |
| TTATTACGGA | 1.03 ± 0.013 |
